# ± gives the standard deviation of the averaged measurements.
# Test system: Saccharomyces cerevisiae
# Test: protein stability index of tFT-peptide fusion (C-terminal peptide) (PSI (0-1 scale)); higher = more stable (slower turnover)
# Conditions: genetic background: wild type; temperature: 30 C
# 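Further: PSI is a weighted mean of sequencing reads over stability bins, variants kept only with over 10 reads, mCherry proximal and sfGFP distal, peptide attached via GGGS linker.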
row,Sequence,protein stability index
1,QSNEHVRQSETS,0.682 ± 0.03
2,QSNQEETRQDGT,0.687 ± 0.0084
3,QSPPILVPSSDV,0.686 ± 0.067
4,QSRERDGSIRNP,0.644 ± 0.021
5,QTKSLLTPLLNL,0.65 ± 0.018
6,QTPNRTPIRPPP,0.716 ± 0.0093
7,QTSASSAALLRP,0.622 ± 0.042
8,QTVSISGVPDGF,0.6669 ± 0.001
9,QVAIEKTTHVQE,0.637 ± 0.13
10,QVFVRRSSPRVL,0.666 ± 0.014
11,QVRTWGGCWGRG,0.674 ± 0.0083
12,QVVLCCAIDKNT,0.708 ± 0.082
13,QWSNSRPVGLTG,0.676 ± 0.017
14,QYKKKEKKQNRT,0.624 ± 0.1
15,QYSDRQGGRATD,0.708 ± 0.015
16,QYSFFLRSPEVF,0.512 ± 0.038
17,RAALEAPGCIQV,0.73316 ± 3e-05
18,RAIGSRIIIWGL,0.564 ± 0.011
19,RALALVHRQRVG,0.648 ± 0.096
20,RALPLLPLPRLS,0.66 ± 0.024
21,RALPSPRSPLSI,0.616 ± 0.041
22,RAPDFYPTHPLA,0.701 ± 0.057
23,RAPRSPPPPALA,0.77114 ± 0.00071

row,Sequence,protein stability index
1,RARRYNRQSTPT,0.702 ± 0.023
2,RASPFPAMSAQV,0.684 ± 0.023
3,RATTNKRIRVEL,0.704 ± 0.011
4,RCAQKSMALLSD,0.68 ± 0.0097
5,RCAWSEVFEGCG,0.71 ± 0.021
6,RCEGNGKRASTE,0.632 ± 0.031
7,RCGRGVAAEWLS,0.668 ± 0.06
8,RCLGSTCRFFTF,0.7 ± 0.065
9,RCNKETKNKDVL,0.7348 ± 0.0054
10,RCRCPHFLCRFS,0.6165 ± 0.0049
11,RCRKVSTISRFK,0.7053 ± 0.002
12,RCSFSYLPVIQV,0.582 ± 0.006
13,RCSKFRKFFKHR,0.6565 ± 0.0031
14,RCSNWFVGFCPF,0.733 ± 0.062
15,RCTQCFSPFSTD,0.7221 ± 0.0052
16,RCVFGFGGVVVV,0.622 ± 0.073
17,RCWEWADWPRDG,0.764 ± 0.029
18,RCYTLFLGRSRV,0.68037 ± 0.00022
19,RDGIMTDDKRIS,0.707 ± 0.035
20,RDILFIGINIYK,0.585 ± 0.049
21,RDLRGGIADSAG,0.684 ± 0.086
22,RDMCVFSGGSGV,0.68 ± 0.048
23,RDPERYAQLTAP,0.776 ± 0.0086

row,Sequence,protein stability index
1,RDRAPLLNLACL,0.689 ± 0.074
2,RDRTVGLLEGTA,0.695 ± 0.085
3,RDSDSSLRHNSH,0.682 ± 0.061
4,REAGGSQVKRRL,0.671 ± 0.12
5,REDSGGVNWGRC,0.692 ± 0.039
6,REEMASGGCIIR,0.6845 ± 0.0039
7,REERSRQSLVKW,0.675 ± 0.06
8,REGYGVGRERGD,0.649 ± 0.017
9,REKEKMRVVGMT,0.746 ± 0.036
10,REKKDGKLSTTR,0.761 ± 0.045
11,REKKDKKNSKKI,0.701 ± 0.022
12,REMKGKLHEHRK,0.6792 ± 0.0029
13,RETGTSVEQVRT,0.68 ± 0.036
14,RETPPALRSFPV,0.613 ± 0.26
15,REVLYCTSMLQD,0.707 ± 0.038
16,REVSGLTIRMVR,0.659 ± 0.03
17,REWCSGGPCAAS,0.721 ± 0.043
18,REYGVKRIEIKQ,0.682 ± 0.04
19,RFAEEDFIVERT,0.727 ± 0.019
20,RFAGCFSFFRAA,0.683 ± 0.035
21,RFALSCITPCIL,0.661 ± 0.069
22,RFAWLPAPGRIV,0.647 ± 0.015
23,RFCIARGSLLDY,0.554 ± 0.025

row,Sequence,protein stability index
1,RFCVTASDLREF,0.751 ± 0.057
2,RFDFSVTPHLGF,0.668 ± 0.036
3,RFEFFHLVSWLL,0.644 ± 0.052
4,RFGRGAGGGLGG,0.6763 ± 0.0013
5,RFGSFVSISRVG,0.603 ± 0.14
6,RFGWRRGRVGSS,0.734 ± 0.038
7,RFLPALSRSLPS,0.782 ± 0.11
8,RFPFSFSGFFLL,0.5532 ± 0.0033
9,RFPPFSFAPCLI,0.712 ± 0.035
10,RFPPWVSSIFAF,0.494 ± 0.0082
11,RFPSSCAPLSPY,0.621 ± 0.029
12,RFPVLRFPASFL,0.669 ± 0.048
13,RGAGRTHCLRAP,0.6613 ± 0.0055
14,RGAHPCLDLRSE,0.654 ± 0.067
15,RGAPLSPPPPRS,0.714 ± 0.13
16,RGARVGKGDACW,0.607 ± 0.069
17,RGCRVMATGVGV,0.651 ± 0.022
18,RGCSGGVVDWIG,0.679 ± 0.017
19,RGEARDARGLEW,0.763 ± 0.12
20,RGEVGKVRGPGT,0.71 ± 0.052
21,RGFKEPLSFKAG,0.613 ± 0.059
22,RGGASGPFVWAG,0.71 ± 0.057
23,RGGEGVWVVGRV,0.703 ± 0.075

row,Sequence,protein stability index
1,RGGERAGETAGQ,0.695 ± 0.053
2,RGGFVEGFVLVR,0.611 ± 0.073
3,RGGGPTGARPAM,0.711 ± 0.1
4,RGGGQVLGARVG,0.634 ± 0.017
5,RGGGWGRKVSVG,0.659 ± 0.095
6,RGGPSPAASSRG,0.725 ± 0.057
7,RGGRGGPGWVAG,0.681 ± 0.025
8,RGHKATNICHSV,0.721 ± 0.042
9,RGIILSSSGFVW,0.735 ± 0.012
10,RGKRGRRGDEAG,0.712 ± 0.093
11,RGLVRLIRGGYN,0.698 ± 0.18
12,RGMGPGAFVSGQ,0.677 ± 0.077
13,RGPAFAQPLPFL,0.738 ± 0.034
14,RGPELDRRLPLC,0.663 ± 0.03
15,RGPGKKQIISQK,0.741 ± 0.02
16,RGPGSNGSLPWF,0.689 ± 0.056
17,RGRAGTRGVVEK,0.71 ± 0.024
18,RGRAPLRRPPGP,0.717 ± 0.048
19,RGRAVGVGGGGV,0.626 ± 0.027
20,RGRCLGAESRGG,0.767 ± 0.069
21,RGRKEQSKKKKE,0.647 ± 0.13
22,RGRLCRESGSRS,0.711 ± 0.033
23,RGRMGLGSPGGG,0.639 ± 0.06

row,Sequence,protein stability index
1,RGRRRAADRSLR,0.749 ± 0.14
2,RGRSLPIPHTFP,0.714 ± 0.085
3,RGSTLPRRVRLK,0.641 ± 0.042
4,RGSVDGTLQKPG,0.6691 ± 0.00087
5,RGSWSDEFWREG,0.84 ± 0.056
6,RGTVPHSLDLYL,0.679 ± 0.025
7,RGVETGRGREKE,0.643 ± 0.046
8,RGVRLGPSVVVG,0.696 ± 0.051
9,RHLALSRPTPFP,0.703 ± 0.04
10,RHLSRSVSKVLR,0.629 ± 0.06
11,RHPTHPVSSLNP,0.777 ± 0.05
12,RHSCLRFPPLHL,0.694 ± 0.1
13,RHSHSLSITHLP,0.675 ± 0.091
14,RHYKNKGQTRVR,0.699 ± 0.051
15,RIEEQMIKNEWE,0.6932 ± 0.0047
16,RIGELRYATQMK,0.676 ± 0.052
17,RILLIRRKEKYL,0.5578 ± 0.0028
18,RILPSPVSAGGF,0.62 ± 0.026
19,RINKIKRKKRIK,0.618 ± 0.062
20,RIPIGDSHIALK,0.692 ± 0.1
21,RIRGGVLYKGVG,0.666 ± 0.016
22,RIRLNHAMSTVV,0.625 ± 0.019
23,RIRRITAGRQRY,0.793 ± 0.067

row,Sequence,protein stability index
1,RIRVKSLAPSPS,0.74 ± 0.17
2,RITWRSKKGLVI,0.71 ± 0.031
3,RKAPLLFSLSHK,0.6761 ± 0.0031
4,RKATGVLQVQDY,0.749 ± 0.14
5,RKEEEGNYWNRI,0.651 ± 0.02
6,RKEKNRKEKSIQ,0.668 ± 0.013
7,RKFGQRQKRECN,0.7085 ± 0.0066
8,RKGKARKKQKRI,0.721 ± 0.1
9,RKICVEDIKESI,0.669 ± 0.013
10,RKIIIINLQKIK,0.586 ± 0.024
11,RKIQNASLGRGA,0.7 ± 0.037
12,RKISLNSPPRES,0.757 ± 0.1
13,RKKHSHKKAKKK,0.702 ± 0.014
14,RKKKNQKHKKKN,0.705 ± 0.026
15,RKKKSNLMDDDD,0.696 ± 0.031
16,RKKRERIREKKN,0.494 ± 0.043
17,RKKRNKQENETK,0.748 ± 0.013
18,RKKRNKTKIEKR,0.719 ± 0.021
19,RKKVRKTKKIKK,0.628 ± 0.089
20,RKLDRDLTPESF,0.666 ± 0.048
21,RKNEKKKKKNKK,0.6645 ± 0.0024
22,RKNNKKKENKKK,0.7954 ± 0.0014
